Starred links: 1 amine or outer side, 2 acyl side, 3 side chain; linkers in the order of their positions; H or OH if unused. Positions of bridges follow the written chain, without caps; N, C: chain ends. Non-standard residues stand in square brackets, D forms with d. No end group written: not given here. X3 = 4‑(2-(4-(2-amino-2-carboxyethyl)phenoxy)ethyl)‑4‑methylmorpholin‑4‑ium, C[N+]1(CCOc2ccc(CC(N[*:1])C(=O)[*:2])cc2)CCOCC1; Trp(7-(3-AcNH-Ph)) = CC(=O)Nc1cccc(-c2cccc3c(C[C@H](N)C(=O)O)c[nH]c23)c1; 2Nal(6-OH) = N[C@@H](Cc1ccc2cc(O)ccc2c1)C(=O)O; Trp(7-Me) = Cc1cccc2c(C[C@H](N)C(=O)O)c[nH]c12; d(hLys(Me3)) = C[N+](C)(C)CCCCC[C@@H](N)C(=O)O; dLys(Me3) = C[N+](C)(C)CCCC[C@@H](N)C(=O)O; AEF = NCCOc1ccc(C[C@H](N)C(=O)O)cc1; 3Pal = N[C@@H](Cc1cccnc1)C(=O)O; d(hLys) = NCCCCC[C@@H](N)C(=O)O; Pen = CC(C)(S)[C@H](N)C(=O)O; Thp = NC1(C(=O)O)CCOCC1; Sar = CNCC(=O)O
Molecular target: T1, interleukin-23 receptor (IL-23R), Q5VWK5
T1 chain: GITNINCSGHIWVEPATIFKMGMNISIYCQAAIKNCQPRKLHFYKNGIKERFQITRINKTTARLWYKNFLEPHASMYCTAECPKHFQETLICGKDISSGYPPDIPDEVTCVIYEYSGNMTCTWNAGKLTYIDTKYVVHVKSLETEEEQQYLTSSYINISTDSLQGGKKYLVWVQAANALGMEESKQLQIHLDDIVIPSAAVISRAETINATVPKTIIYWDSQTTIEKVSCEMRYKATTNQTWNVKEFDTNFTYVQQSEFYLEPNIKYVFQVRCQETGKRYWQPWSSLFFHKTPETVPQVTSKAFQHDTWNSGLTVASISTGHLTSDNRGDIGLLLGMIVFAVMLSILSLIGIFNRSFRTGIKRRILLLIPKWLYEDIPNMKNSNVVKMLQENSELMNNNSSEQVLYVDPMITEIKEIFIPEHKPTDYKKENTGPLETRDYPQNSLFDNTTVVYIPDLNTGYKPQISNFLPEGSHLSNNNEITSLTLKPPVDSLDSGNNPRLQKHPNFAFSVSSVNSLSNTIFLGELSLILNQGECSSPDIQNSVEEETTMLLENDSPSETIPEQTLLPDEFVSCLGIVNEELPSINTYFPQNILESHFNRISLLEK
Test: cell-based or functional assay

B1: SEQ ID NO: 63 (peptide)
peptide: [Pen]NT[Trp(7-(3-AcNH-Ph))]K(Ac)[Pen][5‑(4-(2-amino-2-carboxyethyl)phenoxy)‑N,N,N‑trimethylpentan‑1‑aminium][2Nal(6-OH)][Thp]EN[3Pal][Sar]
modifications: disulfide 1-6 (inferred); ends not checked
IL23R Reporter Assay IC50: < 0.01 µM | PBMC pSTAT3 IC50: < 0.1 nM

B2: SEQ ID NO: 64 (peptide)
peptide: R[Pen]NT[Trp(7-(3-AcNH-Ph))]K(Ac)[Pen][X3][2Nal(6-OH)][Thp]ENH[Sar]
modifications: disulfide 2-7 (inferred); ends not checked
PBMC pSTAT3 IC50: < 1 nM

B3: SEQ ID NO: 65 (peptide)
peptide: R[Pen]NT[Trp(7-(3-AcNH-Ph))]K(Ac)[Pen]Y[2Nal(6-OH)][Thp]EN[3Pal][Sar]
modifications: not fully specified (bridges); ends and bridges not checked
IL23R Reporter Assay IC50: < 0.01 µM | PBMC pSTAT3 IC50: < 1 nM

B4: SEQ ID NO: 67 (peptide)
peptide: [dLys(Me3)][Pen]NT[Trp(7-Me)]K(Ac)[Pen][5‑(4-(2-amino-2-carboxyethyl)phenoxy)‑N,N,N‑trimethylpentan‑1‑aminium][2Nal(6-OH)][Thp]EN[3Pal][Sar]
modifications: not fully specified (bridges); ends and bridges not checked
IL23R Reporter Assay IC50: < 0.01 µM | PBMC pSTAT3 IC50: < 0.1 nM

B5: SEQ ID NO: 69 (peptide)
peptide: [Pen]NT[Trp(7-(3-AcNH-Ph))]K(Ac)[Pen][AEF][2Nal(6-OH)][Thp]EN[3Pal][Sar]
modifications: not fully specified (bridges); ends and bridges not checked
IL23R Reporter Assay IC50: < 0.01 µM | PBMC pSTAT3 IC50: < 10 pM

B6: SEQ ID NO: 74 (peptide)
peptide: R[Pen]NTWK(Ac)[Pen][AEF][2Nal(6-OH)][Thp]EN[3Pal][Sar]
modifications: not fully specified (bridges); ends and bridges not checked
IL23R Reporter Assay IC50: < 0.01 µM | PBMC pSTAT3 IC50: < 0.1 nM

B7: SEQ ID NO: 77 (peptide)
peptide: R[Pen]NT[Trp(7-Me)]K(Ac)[Pen][X3][2Nal(6-OH)][Thp]EN[3Pal][Sar]
modifications: not fully specified (bridges); ends and bridges not checked
IL23R Reporter Assay IC50: < 0.01 µM | PBMC pSTAT3 IC50: < 10 pM

B8: SEQ ID NO: 79 (peptide)
peptide: [Pen]NT[Trp(7-Me)]K(Ac)[Pen][5‑(4-(2-amino-2-carboxyethyl)phenoxy)‑N,N,N‑trimethylpentan‑1‑aminium][2Nal(6-OH)][Thp]EN[3Pal][Sar]
modifications: not fully specified (bridges); ends and bridges not checked
IL23R Reporter Assay IC50: < 0.01 µM | PBMC pSTAT3 IC50: < 10 pM

B9: SEQ ID NO: 96 (peptide)
peptide: [Pen]NT[Trp(7-Me)]K[Pen][AEF][2Nal(6-OH)][Thp]K(Ac)N[3Pal][Sar]
modifications: disulfide 1-6 (inferred); not fully specified (residue 5); ends not checked; also: K5: lipidated lysine, lipid not given here
PBMC pSTAT3 IC50: < 0.1 nM

B10: SEQ ID NO: 110 (peptide)
peptide: R[Pen]NT[Trp(7-(3-AcNH-Ph))]K(Ac)[Pen][X3][2Nal(6-OH)][Thp]EN[Thp]
modifications: disulfide 2-7 (inferred); ends not checked
PBMC pSTAT3 IC50: < 1 nM

B11: SEQ ID NO: 116 (peptide)
peptide: R[Pen]NT[Trp(7-Me)]K(Ac)[Pen][AEF][2Nal(6-OH)][Thp]EN[3Pal][Sar]K
modifications: disulfide 2-7 (inferred); ends not checked; also: K15: lipidated lysine, lipid not given here
PBMC pSTAT3 IC50: < 1 nM

B12: SEQ ID NO: 118 (peptide)
peptide: K[Pen]NT[Trp(7-Me)]K(Ac)[Pen][AEF][2Nal(6-OH)][Thp]K(Ac)N[3Pal][Sar]
modifications: disulfide 2-7 (inferred); ends not checked; also: K1: lipidated lysine, lipid not given here
PBMC pSTAT3 IC50: < 1 nM

B13: SEQ ID NO: 119 (peptide)
peptide: [d(hLys)](Me3)[Pen]NT[Trp(7-Me)]K[Pen][AEF][2Nal(6-OH)][Thp]K(Ac)N[3Pal][Sar]
modifications: disulfide 2-7 (inferred); ends not checked; also: K6: lipidated lysine, lipid not given here
PBMC pSTAT3 IC50: < 1 nM

B14: SEQ ID NO: 126 (peptide)
peptide: K[Pen]NT[Trp(7-Me)]K(Ac)[Pen][AEF][2Nal(6-OH)][Thp]EN[3Pal][Sar]
modifications: disulfide 2-7 (inferred); ends not checked; also: K1: lipidated lysine, lipid not given here
PBMC pSTAT3 IC50: < 1 nM

B15: SEQ ID NO: 128 (peptide)
peptide: [Pen]NT[Trp(7-Me)]K(Ac)[Pen][AEF][2Nal(6-OH)][Thp]KN[3Pal][Sar]
modifications: disulfide 1-6 (inferred); ends not checked; also: K10: lipidated lysine, lipid not given here
PBMC pSTAT3 IC50: < 1 nM

B16: SEQ ID NO: 129 (peptide)
peptide: [Pen]NT[Trp(7-Me)]K(Ac)[Pen][AEF][2Nal(6-OH)][Thp]KN[3Pal][Sar]
modifications: disulfide 1-6 (inferred); ends not checked; also: K10: lipidated lysine, lipid not given here
PBMC pSTAT3 IC50: < 1 nM

B17: SEQ ID NO: 131 (peptide)
peptide: [Pen]NT[Trp(7-Me)]K[Pen][AEF][2Nal(6-OH)][Thp]K(Ac)N[3Pal][Sar]
modifications: disulfide 1-6 (inferred); ends not checked; also: K5: lipidated lysine, lipid not given here
PBMC pSTAT3 IC50: < 1 nM

B18: SEQ ID NO: 134 (peptide)
peptide: K[Pen]ET[Trp(7-Me)]K(Ac)[Pen][AEF][2Nal(6-OH)][Thp]K(Ac)N[3Pal][Sar]
modifications: disulfide 2-7 (inferred); ends not checked
PBMC pSTAT3 IC50: < 1 nM

B19: SEQ ID NO: 139 (peptide)
peptide: [Pen]NT[Trp(7-Me)]K(Ac)[Pen][AEF][2Nal(6-OH)][Thp]K(Ac)N[3Pal][Sar]K
modifications: disulfide 1-6 (inferred); ends not checked; also: K14: lipidated lysine, lipid not given here
PBMC pSTAT3 IC50: < 0.1 nM

B20: SEQ ID NO: 140 (peptide)
peptide: R[Pen]ET[Trp(7-Me)]K[Pen][AEF][2Nal(6-OH)][Thp]EN[3Pal][Sar]
modifications: disulfide 2-7 (inferred); ends not checked; also: K6: lipidated lysine, lipid not given here
PBMC pSTAT3 IC50: < 1 nM

B21: SEQ ID NO: 141 (peptide)
peptide: R[Pen]ET[Trp(7-Me)]K(Ac)[Pen][AEF][2Nal(6-OH)][Thp]EN[3Pal][Sar]
modifications: disulfide 2-7 (inferred); ends not checked
PBMC pSTAT3 IC50: < 0.1 nM

B22: SEQ ID NO: 142 (peptide)
peptide: R[Pen]ET[Trp(7-Me)]K(Ac)[Pen][2‑amino‑3‑(4-(2-aminoethoxy)phenyl)propanoic acid][2‑amino‑3‑(6-hydroxynaphthalen-2-yl)propanoic acid][Thp]EN[3Pal][Sar]K
modifications: disulfide 2-7 (inferred); ends not checked; also: Lys15: lipidated lysine, lipid not given here
PBMC pSTAT3 IC50: < 0.1 nM

B23: SEQ ID NO: 144 (peptide)
peptide: [d(hLys(Me3))][Pen]NT[Trp(7-Me)]K(Ac)[Pen][2‑amino‑3‑(4-(2-aminoethoxy)phenyl)propanoic acid][2‑amino‑3‑(6-hydroxynaphthalen-2-yl)propanoic acid][Thp]EN[3Pal][Sar]
modifications: disulfide 2-7 (inferred); ends not checked
PBMC pSTAT3 IC50: < 1 nM

B24: SEQ ID NO: 145 (peptide)
peptide: [(R)‑2‑(2-(3-((5-carboxy-5-hydrazineylpentyl)amino)-3-oxopropoxy)ethoxy)‑N,N,N‑trimethylethan‑1‑aminium][Pen]NT[Trp(7-Me)]K(Ac)[Pen][2‑amino‑3‑(4-(2-aminoethoxy)phenyl)propanoic acid][2‑amino‑3‑(6-hydroxynaphthalen-2-yl)propanoic acid][Thp]EN[3Pal][Sar]
modifications: disulfide 2-7 (inferred); ends not checked
PBMC pSTAT3 IC50: < 0.1 nM

B25: SEQ ID NO: 147 (peptide)
peptide: R[Pen]ET[Trp(7-Me)]K(Ac)[Pen][2‑amino‑3‑(4-(2-aminoethoxy)phenyl)propanoic acid][2‑amino‑3‑(6-hydroxynaphthalen-2-yl)propanoic acid][Thp]EN[3Pal][Sar]K
modifications: disulfide 2-7 (inferred); ends not checked; also: Lys15: lipidated lysine, lipid not given here
PBMC pSTAT3 IC50: < 1 nM

Source: patent US20240279281A1, “Peptide Inhibitors of Interleukin-23 Receptor” (Janssen Pharmaceutica NV, priority 2023, published 2024)
